Laboratory results published in patent publication US20250327097A1, “ORGANISMS PRODUCING LESS CROTONIC ACID” (Global Bioenergies, priority 2021, published 2025).

Tested on: 3-methylcrotonic acid
Format: biochemical, Yersinia frederiksenii
Parameters: key: “+” representing a low increase in activity; “++++” representing a high increase in activity

B1: I283T-P284D-N285M-N287T-L289Q-S322T-N388M-K394R-C430A-L432F-L434W-S436N-G462P-A463P (protein)
chain: MFLKSLREQINLLKRQGDLRIINRPVDSYLEAAAIIRRSTETKAPVPLMTNIKGYPGCSIVGGLAALSSNPEYPLSRVAMSLGLSTTASAQSIVQYLIDGLKKTPYLPVEIDSNSAPCKQNILRGEDASLAHFPIPQVHQHDGNRYVNTWGVFIVESPDGQWCNWSIQRVQYLNDRQMIALVFPSQHISDIWEEWVKIGKPMPYALVQGCEPIVPYIAGLPLLERNVNEAEYIGALYGKGIEVVKCETHDLRVPASSEVVIEGYFAITREGVEGPFGEFAGYTDMETSQQPILSITAISWQDDPIWPVVAEGKPVDEYHTCTGIGDAAAIQNVLLTANLPVSFVWVPLYSACHLMIVSINRHWRQTHPDLTSEQLTKKVGDVIHQTRMSIKLPRIVVLDDDVDPADTESLLWALATRIHPERKRYFYESAIFPWLNCYSEEERHNRKGKRVIIDALLPENHPPISSFDYAYPDDIKQRVLMHWETDFSHD
- Activity relative to WT: ++++

B2: I283T-P284D-N287P-S322T-N388M-R422G-C430N-L432F-L434W-S436N-dG462 (protein)
chain: MFLKSLREQINLLKRQGDLRIINRPVDSYLEAAAIIRRSTETKAPVPLMTNIKGYPGCSIVGGLAALSSNPEYPLSRVAMSLGLSTTASAQSIVQYLIDGLKKTPYLPVEIDSNSAPCKQNILRGEDASLAHFPIPQVHQHDGNRYVNTWGVFIVESPDGQWCNWSIQRVQYLNDRQMIALVFPSQHISDIWEEWVKIGKPMPYALVQGCEPIVPYIAGLPLLERNVNEAEYIGALYGKGIEVVKCETHDLRVPASSEVVIEGYFAITREGVEGPFGEFAGYTDNEPSLQPILSITAISWQDDPIWPVVAEGKPVDEYHTCTGIGDAAAIQNVLLTANLPVSFVWVPLYSACHLMIVSINRHWRQTHPDLTSEQLTKKVGDVIHQTRMSIKLPKIVVLDDDVDPADTESLLWALATRIHPEGKRYFYESNIFPWLNCYSEEERHNRKGKRVIIDALLPENHGAISSFDYAYPDDIKQRVLMHWETDFSHD
- Activity relative to WT: ++++

B3: I283T-P284D-N285M-N287T-L289M-S322T-N388M-K394R-C430A-L432F-L434W-S436N-G462P-A463P (protein)
chain: MFLKSLREQINLLKRQGDLRIINRPVDSYLEAAAIIRRSTETKAPVPLMTNIKGYPGCSIVGGLAALSSNPEYPLSRVAMSLGLSTTASAQSIVQYLIDGLKKTPYLPVEIDSNSAPCKQNILRGEDASLAHFPIPQVHQHDGNRYVNTWGVFIVESPDGQWCNWSIQRVQYLNDRQMIALVFPSQHISDIWEEWVKIGKPMPYALVQGCEPIVPYIAGLPLLERNVNEAEYIGALYGKGIEVVKCETHDLRVPASSEVVIEGYFAITREGVEGPFGEFAGYTDMETSMQPILSITAISWQDDPIWPVVAEGKPVDEYHTCTGIGDAAAIQNVLLTANLPVSFVWVPLYSACHLMIVSINRHWRQTHPDLTSEQLTKKVGDVIHQTRMSIKLPRIVVLDDDVDPADTESLLWALATRIHPERKRYFYESAIFPWLNCYSEEERHNRKGKRVIIDALLPENHPPISSFDYAYPDDIKQRVLMHWETDFSHD
- Activity relative to WT: ++++

B4: I283T-P284D-N287P-S322T-P368S-N388M-E421V-C430N-L432F-L434W-S436N-dG462 (protein)
chain: MFLKSLREQINLLKRQGDLRIINRPVDSYLEAAAIIRRSTETKAPVPLMTNIKGYPGCSIVGGLAALSSNPEYPLSRVAMSLGLSTTASAQSIVQYLIDGLKKTPYLPVEIDSNSAPCKQNILRGEDASLAHFPIPQVHQHDGNRYVNTWGVFIVESPDGQWCNWSIQRVQYLNDRQMIALVFPSQHISDIWEEWVKIGKPMPYALVQGCEPIVPYIAGLPLLERNVNEAEYIGALYGKGIEVVKCETHDLRVPASSEVVIEGYFAITREGVEGPFGEFAGYTDNEPSLQPILSITAISWQDDPIWPVVAEGKPVDEYHTCTGIGDAAAIQNVLLTANLPVSFVWVPLYSACHLMIVSINRHWRQTHSDLTSEQLTKKVGDVIHQTRMSIKLPKIVVLDDDVDPADTESLLWALATRIHPVRKRYFYESNIFPWLNCYSEEERHNRKGKRVIIDALLPENHGAISSFDYAYPDDIKQRVLMHWETDFSHD
- Activity relative to WT: ++++

B5: I283T-P284D-N287P-S322T-H384A-N388M-C430N-L432F-L434W-S436N-dG462 (protein)
chain: MFLKSLREQINLLKRQGDLRIINRPVDSYLEAAAIIRRSTETKAPVPLMTNIKGYPGCSIVGGLAALSSNPEYPLSRVAMSLGLSTTASAQSIVQYLIDGLKKTPYLPVEIDSNSAPCKQNILRGEDASLAHFPIPQVHQHDGNRYVNTWGVFIVESPDGQWCNWSIQRVQYLNDRQMIALVFPSQHISDIWEEWVKIGKPMPYALVQGCEPIVPYIAGLPLLERNVNEAEYIGALYGKGIEVVKCETHDLRVPASSEVVIEGYFAITREGVEGPFGEFAGYTDNEPSLQPILSITAISWQDDPIWPVVAEGKPVDEYHTCTGIGDAAAIQNVLLTANLPVSFVWVPLYSACHLMIVSINRHWRQTHPDLTSEQLTKKVGDVIAQTRMSIKLPKIVVLDDDVDPADTESLLWALATRIHPERKRYFYESNIFPWLNCYSEEERHNRKGKRVIIDALLPENHGAISSFDYAYPDDIKQRVLMHWETDFSHD
- Activity relative to WT: ++++

B6: N388M-K394R-C430N-L432F-L434W-S436N-H444N (protein)
chain: MFLKSLREQINLLKRQGDLRIINRPVDSYLEAAAIIRRSTETKAPVPLMTNIKGYPGCSIVGGLAALSSNPEYPLSRVAMSLGLSTTASAQSIVQYLIDGLKKTPYLPVEIDSNSAPCKQNILRGEDASLAHFPIPQVHQHDGNRYVNTWGVFIVESPDGQWCNWSIQRVQYLNDRQMIALVFPSQHISDIWEEWVKIGKPMPYALVQGCEPIVPYIAGLPLLERNVNEAEYIGALYGKGIEVVKCETHDLRVPASSEVVIEGYFAITREGVEGPFGEFAGYIPNENSLQPILSITAISWQDDPIWPVVAEGKPVDEYHTCSGIGDAAAIQNVLLTANLPVSFVWVPLYSACHLMIVSINRHWRQTHPDLTSEQLTKKVGDVIHQTRMSIKLPRIVVLDDDVDPADTESLLWALATRIHPERKRYFYESNIFPWLNCYSEEERNNRKGKRVIIDALLPENHGAISSFDYAYPDDIKQRVLMHWETDFSHD
- Activity relative to WT: +

B7: I283T-P284D-N285M-N287T-S322T-N388M-K394R-C430T-L432F-L434W-S436N-G462P-A463P (protein)
chain: MFLKSLREQINLLKRQGDLRIINRPVDSYLEAAAIIRRSTETKAPVPLMTNIKGYPGCSIVGGLAALSSNPEYPLSRVAMSLGLSTTASAQSIVQYLIDGLKKTPYLPVEIDSNSAPCKQNILRGEDASLAHFPIPQVHQHDGNRYVNTWGVFIVESPDGQWCNWSIQRVQYLNDRQMIALVFPSQHISDIWEEWVKIGKPMPYALVQGCEPIVPYIAGLPLLERNVNEAEYIGALYGKGIEVVKCETHDLRVPASSEVVIEGYFAITREGVEGPFGEFAGYTDMETSLQPILSITAISWQDDPIWPVVAEGKPVDEYHTCTGIGDAAAIQNVLLTANLPVSFVWVPLYSACHLMIVSINRHWRQTHPDLTSEQLTKKVGDVIHQTRMSIKLPRIVVLDDDVDPADTESLLWALATRIHPERKRYFYESTIFPWLNCYSEEERHNRKGKRVIIDALLPENHPPISSFDYAYPDDIKQRVLMHWETDFSHD
- Activity relative to WT: ++++

B8: I283T-P284D-N285M-N287T-L289R-S322T-N388M-K394R-C430A-L432F-L434W-S436N-G462P-A463P (protein)
chain: MFLKSLREQINLLKRQGDLRIINRPVDSYLEAAAIIRRSTETKAPVPLMTNIKGYPGCSIVGGLAALSSNPEYPLSRVAMSLGLSTTASAQSIVQYLIDGLKKTPYLPVEIDSNSAPCKQNILRGEDASLAHFPIPQVHQHDGNRYVNTWGVFIVESPDGQWCNWSIQRVQYLNDRQMIALVFPSQHISDIWEEWVKIGKPMPYALVQGCEPIVPYIAGLPLLERNVNEAEYIGALYGKGIEVVKCETHDLRVPASSEVVIEGYFAITREGVEGPFGEFAGYTDMETSRQPILSITAISWQDDPIWPVVAEGKPVDEYHTCTGIGDAAAIQNVLLTANLPVSFVWVPLYSACHLMIVSINRHWRQTHPDLTSEQLTKKVGDVIHQTRMSIKLPRIVVLDDDVDPADTESLLWALATRIHPERKRYFYESAIFPWLNCYSEEERHNRKGKRVIIDALLPENHPPISSFDYAYPDDIKQRVLMHWETDFSHD
- Activity relative to WT: ++++

B9: I283T-P284D-N287P-S322T-N388M-R422L-C430N-L432F-L434W-S436N-dG462 (protein)
chain: MFLKSLREQINLLKRQGDLRIINRPVDSYLEAAAIIRRSTETKAPVPLMTNIKGYPGCSIVGGLAALSSNPEYPLSRVAMSLGLSTTASAQSIVQYLIDGLKKTPYLPVEIDSNSAPCKQNILRGEDASLAHFPIPQVHQHDGNRYVNTWGVFIVESPDGQWCNWSIQRVQYLNDRQMIALVFPSQHISDIWEEWVKIGKPMPYALVQGCEPIVPYIAGLPLLERNVNEAEYIGALYGKGIEVVKCETHDLRVPASSEVVIEGYFAITREGVEGPFGEFAGYTDNEPSLQPILSITAISWQDDPIWPVVAEGKPVDEYHTCTGIGDAAAIQNVLLTANLPVSFVWVPLYSACHLMIVSINRHWRQTHPDLTSEQLTKKVGDVIHQTRMSIKLPKIVVLDDDVDPADTESLLWALATRIHPELKRYFYESNIFPWLNCYSEEERHNRKGKRVIIDALLPENHGAISSFDYAYPDDIKQRVLMHWETDFSHD
- Activity relative to WT: ++++

B10: P25L-I283T-P284D-N287P-S322T-N388M-C430N-L432F-L434W-S436N-dG462 (protein)
chain: MFLKSLREQINLLKRQGDLRIINRLVDSYLEAAAIIRRSTETKAPVPLMTNIKGYPGCSIVGGLAALSSNPEYPLSRVAMSLGLSTTASAQSIVQYLIDGLKKTPYLPVEIDSNSAPCKQNILRGEDASLAHFPIPQVHQHDGNRYVNTWGVFIVESPDGQWCNWSIQRVQYLNDRQMIALVFPSQHISDIWEEWVKIGKPMPYALVQGCEPIVPYIAGLPLLERNVNEAEYIGALYGKGIEVVKCETHDLRVPASSEVVIEGYFAITREGVEGPFGEFAGYTDNEPSLQPILSITAISWQDDPIWPVVAEGKPVDEYHTCTGIGDAAAIQNVLLTANLPVSFVWVPLYSACHLMIVSINRHWRQTHPDLTSEQLTKKVGDVIHQTRMSIKLPKIVVLDDDVDPADTESLLWALATRIHPERKRYFYESNIFPWLNCYSEEERHNRKGKRVIIDALLPENHGAISSFDYAYPDDIKQRVLMHWETDFSHD
- Activity relative to WT: ++++
